# Target: the molecule itself
# Experiment: FRET or BRET
protein,measurement,value
"Wzm, transmembrane protein of the A-band polysaccharide ABC transporter of Pseudomonas aeruginosa, fused to GFP2 or YFP (natural protein, Pseudomonas aeruginosa PAO1, UniProt Q9HTB8 1-265, looked up) MLLGLSRSLWGYRGFVLGSVKREFQSRYRGSLFGALWTVLNPLSMIVVYTVIFSQVMRARLPGVDDGLAYSVYLCAGLLTWGLFAEITSRSQSMFIENANLLKKISFPRICLPVIVLLNAGVNFAIILALFLGFLALSGRLPGAALLALVPLLAIQVLFAAGLGMILGVLNVFFRDVGQLFGICLQFWFWLTPIVYPIGILPEGIRSLIELNPMTALMRSYQQLFLHGQWPDWPSLLPITLLALLLCALGLRLFRQRVGEMVDEL",stoichiometry N,4
